Test results published in paper PMC7474598.

What was measured:
FLAG-SEPN1^D80A (human) = FLAG-SEPN1^D80A (human) (UniProt Q9NZV5); test: sucrose gradient sedimentation; lysates of HeLa cells treated for 2 h with DMSO or Tg; 4% to 20% sucrose gradients, 19 fractions, FLAG immunoblot; markers BSA, IgG, catalase
FLAG-SEPN1^U428C (human) = FLAG-SEPN1^U428C (human) (UniProt Q9NZV5); test: as above

Substance	percent monomer (DMSO-treated cells) (FLAG-SEPN1^D80A (human)) [%]	percent monomer (Tg-treated cells) (FLAG-SEPN1^D80A (human)) [%]	percent oligomer (DMSO-treated cells) (FLAG-SEPN1^D80A (human)) [%]	percent oligomer (Tg-treated cells) (FLAG-SEPN1^D80A (human)) [%]	percent monomer (Tg-treated cells) (FLAG-SEPN1^U428C (human)) [%]	percent oligomer (DMSO-treated cells) (FLAG-SEPN1^U428C (human)) [%]
FLAG-SEPN1^D80A (from UniProt Q9NZV5-2 44-556) (natural protein)	79.7	78.4	21.5	21.5	–	–
FLAG-SEPN1^U428C (from UniProt Q9NZV5-2 44-556) (natural protein)	–	–	–	–	61.8	96.2
